US20110020437A1 (APIM THERAPEUTICS, published 2011)

Biological target: T1, proliferating cell nuclear antigen (PCNA) (UniProt P12004 1-261)
T1 construct: Used both for endogenous PCNA of HeLa cell extracts (co-IP, cross-linking) and for the untagged 'PCNA' used as probe in the dot blot; also called endogenous PCNA
Assay: co-IP with anti-GFP antibodies from stably expressing cells, anti-PCNA western blot
Experimental: An in-house affinity purified rabbit polyclonal antibody raised against GFP protein, which also recognises EYFP and ECFP proteins, was covalently linked to protein-A paramagnetic beads (Dynal®) according to procedure from New England Biolabs® Inc (from now on called α-GFP beads). Each fraction was incubated with α-GFP beads (10 μl) during constant rotation at 4° C. over night (IP). After IP, the beads were washed 4 times with 200 μl 10 mM Tris-HCl, 50 mM KCl (pH 7.5), with 5 min incubation on ice in between. The beads were then resuspended in NuPAGE ® (Invitrogen) loading buffer and 1 mM DTT, heated, and separated on 10% or 4-12% Bis-Tris-HCl (NuPAGE®) gels and transferred to PVDF membranes (Imrnobilon®, Millipore). The membranes were blocked for 1 h in 5% low fat dry milk in PBST (PBS with 0.1% Tween® 20). The primary antibodies, α-PCNA (PC10, Santa Cruz biotechnology Inc.) and α-GFP were diluted in 1% dry milk in PBST and incubated for 1 h, followed by 1 h incubation with secondary antibodies, Polyclonal Rabbit Anti-mouse IgG/HRP and Polyclonal Swine Anti-rabbit IgG/HRP, respectively (DakoCytomation, Denmark). The membranes were treated with chemiluminescence reagent (SuperSignal® West Femto Maximum, PIERCE), and the proteins visualised in Kodak Image Station 2000R. […]

T1 sequence (P12004 whole entry): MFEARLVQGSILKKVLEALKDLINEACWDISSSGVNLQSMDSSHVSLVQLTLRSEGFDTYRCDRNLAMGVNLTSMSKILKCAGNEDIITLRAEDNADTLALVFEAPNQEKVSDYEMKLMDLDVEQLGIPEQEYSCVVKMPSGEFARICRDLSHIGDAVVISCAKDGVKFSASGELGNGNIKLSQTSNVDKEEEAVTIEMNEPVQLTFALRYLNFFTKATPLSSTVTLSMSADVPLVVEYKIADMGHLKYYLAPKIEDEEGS

B1: hABH211-261-EYFP (other, human, UniProt Q6NS38 11-261, looked up)
chain: GGLLRKQEEQEPTGEEPAVLGGDKESTRKRPRREAPGNGGHSAGPSWRHIRAEGLDCSYTVLFGKAEADEIFQELEKEVEYFTGALARVQVFGKWHSVPRKQATYGDAGLTYTFSGLTLSPKPWIPVLERIRDHVSGVTGQTFNFVLINRYKDGCDHIGEHRDDERELAPGSPIASVSFGACRDFVFRHKDSRGKSPSRRVAVVRLPLAHGSLLMMNHPTNTHWYHSLPVRKKVLAPRVNLTFRKILLTKK
notes: not shown: C-terminal EYFP tag (pEYFP-N1)
- binding result: no binding
